The record followed here is patent US7033773B1, “Screening assays for G protein coupled receptor agonists and antagonists” (The General Hospital Corporation, priority 1997, dated 2006).

This test addresses T1, human PTH/PTHrP receptor (Homo sapiens, UniProt Q03431).
T1 sequence (Q03431 27-593): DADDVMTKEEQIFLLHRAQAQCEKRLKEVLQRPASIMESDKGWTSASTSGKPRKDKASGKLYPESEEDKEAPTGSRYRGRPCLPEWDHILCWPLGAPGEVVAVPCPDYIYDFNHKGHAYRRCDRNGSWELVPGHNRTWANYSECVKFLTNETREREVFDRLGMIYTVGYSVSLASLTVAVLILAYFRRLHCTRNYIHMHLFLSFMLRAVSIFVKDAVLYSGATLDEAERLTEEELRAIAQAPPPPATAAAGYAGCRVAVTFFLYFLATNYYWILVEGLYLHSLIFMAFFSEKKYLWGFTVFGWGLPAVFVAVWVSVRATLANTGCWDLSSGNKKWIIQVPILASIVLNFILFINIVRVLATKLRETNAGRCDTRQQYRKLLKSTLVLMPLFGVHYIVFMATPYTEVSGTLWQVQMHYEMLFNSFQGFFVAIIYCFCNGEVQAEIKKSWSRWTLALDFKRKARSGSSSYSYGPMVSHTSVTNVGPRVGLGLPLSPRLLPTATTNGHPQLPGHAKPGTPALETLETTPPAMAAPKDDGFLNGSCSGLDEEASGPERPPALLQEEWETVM
As to the kind of experiment: Cellular cAMP accumulation in LLC-PK1 cells expressing human PTHR. Format: cell-based. The following applies: HKRK B28 cells; similar in HKRK B7. On the set-up: transfected with a full-length human PTH/PTHrP receptor cDNA; expressed in transfected cells. How it is done:
Cells were seeded into 24-well plates at a density of 2.5×10^5 cells/well and cultured for a further 2 days before study. The cells were rinsed once with 0.5 ml of ice-cold Buffer B [10 mM HEPES (pH 7.4), 130 mM NaCl, 5 mM KCl, 1.2 mM CaCl2, 1 mM MgCl2, 1.2 mM Na2HPO^4 5 mM glucose, and 0.1% heat-inactivated BSA] supplemented with 1 mM isobtylmethylxanthine (IBMX), and placed on ice. Treatments were added to each well in 0.25 ml of IBMX-supplemented Buffer B, after which the plates were incubated at 37° C. for 15 min. The buffer then was rapidly aspirated, the plates were rapidly transferred onto liquid nitrogen, and the frozen monolayers were subsequently thawed directly into 0.5 ml of 50 mM HCl. The extracted cAMP then was measured using a commercial RIA kit (Dupont-New England Nuclear, Boston, Mass.). Results were expressed as fold-basal, where basal levels ranged between 38 and 128 pmol/mg protein/15 min. The basal level of cAMP accumulation in native LLC-PK1 cells was not consistently altered in subclones that expressed wild type PTH/PTHrp receptors.
Maximal PTH-dependent cAMP accumulation was assessed in the human PTHR-transfected LLC-PK1 subclones following incubation for 15 min with a high concentration (1000 nM) of hPTH(1-34) (Table 1). As reported previously for LLC-PK1 cells that stably expressed rat PTHRs (Guo, J., et al., Endocrinology 136:3884-3891 (1995)), the maximal adenylyl cyclase response was relatively independent of the surface density of human PTHRs above a relatively low threshold (relative to that required for PLC activation—see below). In the case of the human PTHR, however, this threshold for saturation of maximal AC activation appeared to lie between 120,000 and 280,000 (Table 1), which is at least 6 to 10-fold higher than that previously observed for the rat PTHR (Guo, J., et al., Endocrinology 136:3884-3891 (1995)).

Regarding hPTH(1-31), the “activation of AC (in words)” value was “indistinguishable from that to hPTH(1-34)”.
